The text below walks through data of PMC5688852.

For the data set, the target named is T1, TTP-2D (tristetraprolin, both CCCH zinc fingers) (UniProt P22893).
T1 sequence: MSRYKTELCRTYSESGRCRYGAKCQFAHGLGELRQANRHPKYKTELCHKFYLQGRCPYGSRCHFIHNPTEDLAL
As to the kind of experiment: fluorescence anisotropy. A general note: Polarisation of emitted light reports the rotation of a fluorescent probe.

UUUAUUUAUUU (ssRNA) [UUUAUUUAUUU-F (AU-rich element)]: the binding result is “binds”.
